What was measured:
ROS1 = target: T1, ROS1 (Homo sapiens, UniProt P08922); assay: saturation binding assay
T1 chain: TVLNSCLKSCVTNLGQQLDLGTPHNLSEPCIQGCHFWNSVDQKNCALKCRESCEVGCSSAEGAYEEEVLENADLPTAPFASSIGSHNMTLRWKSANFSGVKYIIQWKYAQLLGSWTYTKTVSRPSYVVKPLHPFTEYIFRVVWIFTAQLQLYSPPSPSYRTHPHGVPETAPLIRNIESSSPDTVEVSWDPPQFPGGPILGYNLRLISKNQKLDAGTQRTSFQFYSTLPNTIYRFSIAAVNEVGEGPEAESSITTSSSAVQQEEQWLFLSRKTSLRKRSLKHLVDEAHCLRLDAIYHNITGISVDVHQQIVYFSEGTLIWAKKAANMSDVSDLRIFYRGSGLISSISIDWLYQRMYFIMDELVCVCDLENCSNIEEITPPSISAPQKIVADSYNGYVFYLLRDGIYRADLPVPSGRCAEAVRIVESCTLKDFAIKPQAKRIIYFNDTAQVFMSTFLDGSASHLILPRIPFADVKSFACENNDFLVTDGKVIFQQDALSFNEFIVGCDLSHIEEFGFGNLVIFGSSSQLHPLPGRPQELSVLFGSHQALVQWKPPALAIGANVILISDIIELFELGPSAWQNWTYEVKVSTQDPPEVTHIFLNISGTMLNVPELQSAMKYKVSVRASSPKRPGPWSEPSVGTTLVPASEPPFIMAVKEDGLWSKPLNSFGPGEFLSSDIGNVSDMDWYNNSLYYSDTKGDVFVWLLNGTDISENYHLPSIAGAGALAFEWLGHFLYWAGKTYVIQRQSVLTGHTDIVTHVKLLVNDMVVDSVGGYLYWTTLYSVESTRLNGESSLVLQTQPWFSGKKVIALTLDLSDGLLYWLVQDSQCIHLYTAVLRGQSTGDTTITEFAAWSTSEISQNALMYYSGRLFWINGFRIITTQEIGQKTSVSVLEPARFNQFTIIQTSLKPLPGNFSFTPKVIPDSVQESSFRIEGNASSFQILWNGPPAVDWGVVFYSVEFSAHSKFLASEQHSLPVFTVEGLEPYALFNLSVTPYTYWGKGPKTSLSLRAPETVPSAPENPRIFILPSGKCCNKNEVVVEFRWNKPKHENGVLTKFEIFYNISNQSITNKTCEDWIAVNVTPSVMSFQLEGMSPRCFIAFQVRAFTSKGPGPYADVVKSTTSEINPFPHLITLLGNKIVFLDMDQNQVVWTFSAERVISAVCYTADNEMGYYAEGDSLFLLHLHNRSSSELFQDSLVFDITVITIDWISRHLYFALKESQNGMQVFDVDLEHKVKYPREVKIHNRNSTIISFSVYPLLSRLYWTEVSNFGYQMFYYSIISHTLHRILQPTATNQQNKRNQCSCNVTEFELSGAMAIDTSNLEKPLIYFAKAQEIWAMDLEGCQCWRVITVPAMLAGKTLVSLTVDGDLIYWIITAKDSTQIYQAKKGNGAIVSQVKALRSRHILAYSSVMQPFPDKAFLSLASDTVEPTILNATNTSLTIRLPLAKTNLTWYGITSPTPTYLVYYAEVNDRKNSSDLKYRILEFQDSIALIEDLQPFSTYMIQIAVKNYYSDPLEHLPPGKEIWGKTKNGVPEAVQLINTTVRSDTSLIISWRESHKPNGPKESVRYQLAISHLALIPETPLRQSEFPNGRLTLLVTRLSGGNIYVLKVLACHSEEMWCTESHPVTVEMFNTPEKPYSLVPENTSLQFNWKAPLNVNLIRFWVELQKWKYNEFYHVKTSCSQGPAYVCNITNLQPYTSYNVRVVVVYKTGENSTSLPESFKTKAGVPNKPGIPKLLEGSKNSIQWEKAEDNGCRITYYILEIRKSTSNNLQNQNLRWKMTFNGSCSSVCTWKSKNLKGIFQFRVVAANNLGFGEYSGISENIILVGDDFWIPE

ROS1 ECD = target: T2, ROS1 ECD (Homo sapiens, UniProt P08922); assay: saturation binding assay
T2 chain: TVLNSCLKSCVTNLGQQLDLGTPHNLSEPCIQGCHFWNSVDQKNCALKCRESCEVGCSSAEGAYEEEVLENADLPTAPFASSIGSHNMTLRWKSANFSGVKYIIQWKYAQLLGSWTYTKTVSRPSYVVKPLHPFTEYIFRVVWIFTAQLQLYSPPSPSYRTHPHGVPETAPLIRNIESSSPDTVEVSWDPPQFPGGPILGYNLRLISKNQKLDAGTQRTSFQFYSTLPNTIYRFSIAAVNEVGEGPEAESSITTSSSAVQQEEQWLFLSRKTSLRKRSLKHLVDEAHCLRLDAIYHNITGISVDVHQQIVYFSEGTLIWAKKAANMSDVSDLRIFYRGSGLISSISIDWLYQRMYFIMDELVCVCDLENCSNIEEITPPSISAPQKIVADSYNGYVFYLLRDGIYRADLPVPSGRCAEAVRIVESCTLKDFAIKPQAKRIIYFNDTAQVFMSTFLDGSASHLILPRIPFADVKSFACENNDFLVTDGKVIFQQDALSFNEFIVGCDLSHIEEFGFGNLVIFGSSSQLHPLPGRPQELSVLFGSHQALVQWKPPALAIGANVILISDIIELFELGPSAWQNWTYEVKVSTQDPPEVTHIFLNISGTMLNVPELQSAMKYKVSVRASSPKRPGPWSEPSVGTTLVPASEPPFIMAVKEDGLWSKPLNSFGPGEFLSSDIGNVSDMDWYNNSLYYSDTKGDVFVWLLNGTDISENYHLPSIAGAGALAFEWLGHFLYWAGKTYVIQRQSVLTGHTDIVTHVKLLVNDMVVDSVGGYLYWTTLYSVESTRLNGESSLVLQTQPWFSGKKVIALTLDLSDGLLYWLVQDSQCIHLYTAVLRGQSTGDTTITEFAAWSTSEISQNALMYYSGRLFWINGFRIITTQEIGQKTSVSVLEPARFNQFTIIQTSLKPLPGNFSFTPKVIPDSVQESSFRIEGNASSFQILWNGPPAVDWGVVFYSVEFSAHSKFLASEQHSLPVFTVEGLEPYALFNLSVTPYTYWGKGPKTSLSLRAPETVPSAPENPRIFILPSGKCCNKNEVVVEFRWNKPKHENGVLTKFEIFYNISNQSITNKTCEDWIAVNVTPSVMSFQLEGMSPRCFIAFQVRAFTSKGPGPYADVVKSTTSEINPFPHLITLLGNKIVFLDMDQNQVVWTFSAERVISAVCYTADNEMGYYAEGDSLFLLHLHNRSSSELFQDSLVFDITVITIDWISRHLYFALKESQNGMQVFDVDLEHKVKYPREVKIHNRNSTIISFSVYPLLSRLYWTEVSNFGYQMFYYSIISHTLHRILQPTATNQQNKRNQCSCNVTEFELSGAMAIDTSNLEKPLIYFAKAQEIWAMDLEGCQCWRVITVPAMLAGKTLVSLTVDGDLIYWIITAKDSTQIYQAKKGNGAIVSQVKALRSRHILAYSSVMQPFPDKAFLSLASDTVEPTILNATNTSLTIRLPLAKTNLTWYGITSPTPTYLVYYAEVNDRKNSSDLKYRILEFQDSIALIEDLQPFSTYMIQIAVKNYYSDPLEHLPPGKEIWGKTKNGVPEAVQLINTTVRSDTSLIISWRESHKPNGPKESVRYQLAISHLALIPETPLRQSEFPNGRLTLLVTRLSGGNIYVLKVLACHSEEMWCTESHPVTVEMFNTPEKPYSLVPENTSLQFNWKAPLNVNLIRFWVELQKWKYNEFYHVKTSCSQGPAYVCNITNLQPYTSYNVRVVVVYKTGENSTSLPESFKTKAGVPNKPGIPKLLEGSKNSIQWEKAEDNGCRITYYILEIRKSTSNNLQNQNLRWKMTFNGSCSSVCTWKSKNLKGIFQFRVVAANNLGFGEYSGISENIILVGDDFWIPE

B1: RNase7 (protein)
chain: KPKGMTSSQWFKIQHMQPSPQACNSAMKNINKHTKRCKDLNTFLHEPFSSVAATCQTPKIACKNGDKNCHQSHGAVSLTMCKLTSGKHPNCRYKEKRQNKSYVVACKPPQKKDSQQFHLVPVHLDRVL
How did the Kd (ROS1) turn out when B1 was run?
Its Kd is 33.5 nM.

And the Kd (ROS1 ECD)?
The Kd was 28.5 nM.

Reference: article PMC7979498 (2022)
